Results reported in patent publication EP4745153A1, “GLP-1, GIP AND GCG RECEPTOR […] USE THEREOF” (Jiangsu Hengrui Pharmaceuticals Co., Ltd., priority 2023, dated 2025).
Starred links: 1 amine or outer side, 2 acyl side, 3 side chain; linkers in the order of their positions; H or OH if unused. Non-standard residues stand in square brackets, D forms with d. Groups on a side chain read outwards from the residue. No end group written: not given here. *: point of attachment. C20 diacid = O=C(O)CCCCCCCCCCCCCCCCCCC(=O)*; γGlu = O=C(O)[C@H](CCC(=O)[*:2])N[*:1]; αMeL = CC(C)C[C@](C)(N)C(=O)O; Iva = CC[C@](C)(N)C(=O)O; AEEA = NCCOCCOCC(=O)O; Aib = CC(C)(N)C(=O)O

Key:
Test in all cases: cell-based or functional assay
[1] = target: human glucagon-like peptide-1 receptor (human, UniProt P43220 24-463)
[2] = target: T1, human glucose-dependent insulinotropic polypeptide receptor (human, UniProt P48546 22-466)
T1 sequence (looked up): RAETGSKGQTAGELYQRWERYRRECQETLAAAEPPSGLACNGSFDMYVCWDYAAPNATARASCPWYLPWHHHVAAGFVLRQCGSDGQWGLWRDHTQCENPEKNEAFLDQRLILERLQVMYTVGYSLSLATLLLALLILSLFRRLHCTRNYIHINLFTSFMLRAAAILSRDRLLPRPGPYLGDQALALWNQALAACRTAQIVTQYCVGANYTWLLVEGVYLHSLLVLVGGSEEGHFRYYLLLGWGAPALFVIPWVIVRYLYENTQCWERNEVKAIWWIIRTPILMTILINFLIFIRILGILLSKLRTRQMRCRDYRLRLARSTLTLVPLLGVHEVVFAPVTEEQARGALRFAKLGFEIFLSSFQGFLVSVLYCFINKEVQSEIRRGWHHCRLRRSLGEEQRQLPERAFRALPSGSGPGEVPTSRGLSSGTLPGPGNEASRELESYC

human glucagon receptor = human glucagon receptor (human, UniProt P47871 26-477)
human glucagon receptor, sequence (P47871 26-477): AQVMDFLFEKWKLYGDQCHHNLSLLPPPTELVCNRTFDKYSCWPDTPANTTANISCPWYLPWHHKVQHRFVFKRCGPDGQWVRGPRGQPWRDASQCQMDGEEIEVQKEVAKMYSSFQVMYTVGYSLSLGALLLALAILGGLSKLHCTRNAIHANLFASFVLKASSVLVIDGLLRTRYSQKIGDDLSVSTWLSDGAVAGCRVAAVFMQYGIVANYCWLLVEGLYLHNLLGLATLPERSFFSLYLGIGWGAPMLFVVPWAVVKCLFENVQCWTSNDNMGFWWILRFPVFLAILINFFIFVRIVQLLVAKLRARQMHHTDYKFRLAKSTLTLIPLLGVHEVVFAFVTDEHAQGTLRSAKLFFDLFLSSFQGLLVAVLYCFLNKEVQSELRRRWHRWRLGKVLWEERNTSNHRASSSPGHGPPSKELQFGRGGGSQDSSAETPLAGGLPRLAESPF

| Binder | Activity against human GLP-1R (EC50 nM) [1] | Activity against human GIPR (EC50 nM) [2] | Activity against human GCGR (EC50 nM) (human glucagon receptor) |
| --- | --- | --- | --- |
| H[Aib]HGTFTSDYSILLEK([AEEA-AEEA-γGlu-C20 diacid])KAA[Iva]EFVEWLLAGGPSSGAPPPS-NH2 [Compound No. 0135] | 0.013 nM | 0.001 nM | 0.019 nM |
| H[Aib]HGTFTSDLSI[αMeL]LEK([AEEA-AEEA-γGlu-C20 diacid])KAA[Iva]EFVEWLLAGGPSSGAPPPS-NH2 [Compound No. 0138] | 0.019 nM | 0.0006 nM | 0.055 nM |
| H[Aib]HGTFTSDYSI[αMeL]LEK([AEEA-AEEA-γGlu-C20 diacid])KAA[Iva]EFVEWLLAGGPSSGAPPPS-NH2 [Compound No. 0137] | 0.013 nM | 0.001 nM | 0.047 nM |
